This note sets out measurements from the Human Domainome abundance scans (Beltran et al. 2025).

± gives the uncertainty stated by the source.

The data set in a line: abundance fitness (aPCA) (normalised: wild type 0, dead -1); higher = more abundant; growth selection in yeast, the domain comes from the species named. The note with it: Homo sapiens.
For “Lipoamide acyltransferase component of branched-chain alpha-keto acid dehydrogenase complex, mitochondrial L209D, P11182”, the abundance fitness is -0.203 ± 0.045.
As for “Lipoamide acyltransferase component of branched-chain alpha-keto acid dehydrogenase complex, mitochondrial L209E, P11182”, the figure is -0.153 ± 0.04.
As for “Lipoamide acyltransferase component of branched-chain alpha-keto acid dehydrogenase complex, mitochondrial L209F, P11182”, the figure is -0.211 ± 0.098.
The substance “Lipoamide acyltransferase component of branched-chain alpha-keto acid dehydrogenase complex, mitochondrial L209G, P11182” returned an abundance fitness of -0.081 ± 0.034.
As for “Lipoamide acyltransferase component of branched-chain alpha-keto acid dehydrogenase complex, mitochondrial L209I, P11182”, the figure is 0.047 ± 0.17.
As for “Lipoamide acyltransferase component of branched-chain alpha-keto acid dehydrogenase complex, mitochondrial L209K, P11182”, the figure is 0.079 ± 0.087; as for “Lipoamide acyltransferase component of branched-chain alpha-keto acid dehydrogenase complex, mitochondrial L209N, P11182”, -0.138 ± 0.073.
The substance “Lipoamide acyltransferase component of branched-chain alpha-keto acid dehydrogenase complex, mitochondrial L209P, P11182” had an abundance fitness of -0.226 ± 0.051.
To “Lipoamide acyltransferase component of branched-chain alpha-keto acid dehydrogenase complex, mitochondrial L209Q, P11182” belongs -0.072 ± 0.043.
As for “Lipoamide acyltransferase component of branched-chain alpha-keto acid dehydrogenase complex, mitochondrial L209R, P11182”, the figure is 0.006 ± 0.036; as for “Lipoamide acyltransferase component of branched-chain alpha-keto acid dehydrogenase complex, mitochondrial L209S, P11182”, -0.026 ± 0.041; as for “Lipoamide acyltransferase component of branched-chain alpha-keto acid dehydrogenase complex, mitochondrial L209T, P11182”, -0.131 ± 0.058.
As for “Lipoamide acyltransferase component of branched-chain alpha-keto acid dehydrogenase complex, mitochondrial L209V, P11182”, the abundance fitness turned out to be 0.006 ± 0.039.
To “Lipoamide acyltransferase component of branched-chain alpha-keto acid dehydrogenase complex, mitochondrial L209W, P11182” belongs -0.27 ± 0.047.
For the substance “Lipoamide acyltransferase component of branched-chain alpha-keto acid dehydrogenase complex, mitochondrial L209Y, P11182”, the abundance fitness was -0.232 ± 0.087.
As for “Lipoamide acyltransferase component of branched-chain alpha-keto acid dehydrogenase complex, mitochondrial M182A, P11182”, the figure is 0.018 ± 0.072.
As for “Lipoamide acyltransferase component of branched-chain alpha-keto acid dehydrogenase complex, mitochondrial M182C, P11182”, the figure is -0.478 ± 0.12; as for “Lipoamide acyltransferase component of branched-chain alpha-keto acid dehydrogenase complex, mitochondrial M182I, P11182”, -0.408 ± 0.24; as for “Lipoamide acyltransferase component of branched-chain alpha-keto acid dehydrogenase complex, mitochondrial M182T, P11182”, -0.173 ± 0.075.
To “Lipoamide acyltransferase component of branched-chain alpha-keto acid dehydrogenase complex, mitochondrial N184E, P11182” belongs -0.859 ± 0.39.
“Lipoamide acyltransferase component of branched-chain alpha-keto acid dehydrogenase complex, mitochondrial N184G, P11182” displayed an abundance fitness of -0.294 ± 0.093.
To “Lipoamide acyltransferase component of branched-chain alpha-keto acid dehydrogenase complex, mitochondrial N184L, P11182” belongs -0.325 ± 0.11.
As for “Lipoamide acyltransferase component of branched-chain alpha-keto acid dehydrogenase complex, mitochondrial N184P, P11182”, the figure is -1.08 ± 0.4; as for “Lipoamide acyltransferase component of branched-chain alpha-keto acid dehydrogenase complex, mitochondrial N184Q, P11182”, -0.16 ± 0.1.
“Lipoamide acyltransferase component of branched-chain alpha-keto acid dehydrogenase complex, mitochondrial N184R, P11182”: the abundance fitness was -0.097 ± 0.072.
To “Lipoamide acyltransferase component of branched-chain alpha-keto acid dehydrogenase complex, mitochondrial N184S, P11182” belongs 0.168 ± 0.38; to “Lipoamide acyltransferase component of branched-chain alpha-keto acid dehydrogenase complex, mitochondrial N184W, P11182”, -0.179 ± 0.1.
As for “Lipoamide acyltransferase component of branched-chain alpha-keto acid dehydrogenase complex, mitochondrial N185A, P11182”, the figure is -0.21 ± 0.074.
As for “Lipoamide acyltransferase component of branched-chain alpha-keto acid dehydrogenase complex, mitochondrial N185D, P11182”, the figure is -0.178 ± 0.092; as for “Lipoamide acyltransferase component of branched-chain alpha-keto acid dehydrogenase complex, mitochondrial N185E, P11182”, -0.09 ± 0.086.
In turn, “Lipoamide acyltransferase component of branched-chain alpha-keto acid dehydrogenase complex, mitochondrial N185H, P11182” gave an abundance fitness of -0.164 ± 0.16.
To “Lipoamide acyltransferase component of branched-chain alpha-keto acid dehydrogenase complex, mitochondrial N185I, P11182” belongs -0.83 ± 0.09; to “Lipoamide acyltransferase component of branched-chain alpha-keto acid dehydrogenase complex, mitochondrial N185K, P11182”, 0.016 ± 0.1.
